± gives the standard error. For part of these data: This sample holds only a part of the variants without activity.
B1: glmS ribozyme (parent)
chain: AUAAAAGCGCCAGAACUACAGAAAUGUAGUUGACGAGGAGGAGGUUUAUCGAAUUUUCGGCGGAUGCCUCCAAA

Experiments:
Details in all cases: with glucosamine-6-phosphate
[1] = variants of: B1; assay: kcat; higher = faster cleavage; RNA array
Procedure, shortened: (§1)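 Barcoded glmS ribozyme variants on sequenced MiSeq chips were transcribed in situ by E. coli RNA polymerase and tracked through a hybridised Cy3 probe at 37 °C. Glucosamine-6-phosphate (40 μM to 10 mM) in HEPES/KCl/Mg(OAc)2 buffer was flowed in, and tiles were imaged over ~14 h. Signals were normalised to baseline and to non-cleaving reference variants; per-tile medians were fit to one- or two-exponential decays to give kobs. kcat and KM came from weighted Michaelis–Menten fits across concentrations.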

[2] = variants of: B1; assay: KM; higher = weaker cofactor use; RNA array
Procedure, shortened: as §1

[3] = variants of: B1; assay: self-cleavage kobs at 40 uM GlcN6P; higher = faster cleavage; RNA array
Procedure, shortened: as §1

[4] = variants of: B1; assay: self-cleavage kobs at 160 uM GlcN6P; higher = faster cleavage; RNA array
Procedure, shortened: as §1

[5] = variants of: B1; assay: self-cleavage kobs at 640 uM GlcN6P; higher = faster cleavage; RNA array
Procedure, shortened: as §1

[6] = variants of: B1; assay: self-cleavage kobs at 2500 uM GlcN6P; higher = faster cleavage; RNA array
Procedure, shortened: as §1

[7] = variants of: B1; assay: self-cleavage kobs at 10000 uM GlcN6P; higher = faster cleavage; RNA array
Procedure, shortened: as §1

Variant | kcat [1] [s⁻¹] | KM [2] [µM] | self-cleavage kobs at 40 uM GlcN6P [3] [s⁻¹] | self-cleavage kobs at 160 uM GlcN6P [4] [s⁻¹] | self-cleavage kobs at 640 uM GlcN6P [5] [s⁻¹] | self-cleavage kobs at 2500 uM GlcN6P [6] [s⁻¹] | self-cleavage kobs at 10000 uM GlcN6P [7] [s⁻¹]
A12U A15U | 0.0118 ± 0.0023 | 1190 ± 320 | 0.000433 ± 4.6e-05 | 0.0011 ± 0.00016 | 0.00509 ± 0.00065 | 0.00905 ± 0.0015 | 0.00986 ± 0.0013
U46A U56C | 0.0005 ± 4.2e-05 | 1350 ± 250 |  |  | 0.000158 ± 3.2e-05 | 0.000362 ± 8.4e-05 | 0.000424 ± 8.3e-05
A6U G60A | < 1e-05 |  |  |  | < 1e-05 |  | 
A33G C68G | 3.02e-05 ± 6e-06 |  |  | 3.17e-05 ± 1.3e-05 | 3.59e-05 ± 1.5e-05 |  | 
A48C U54G | 0.000498 ± 0.00012 | 2740 ± 1200 |  |  | 0.000114 ± 1.4e-05 | 0.000222 ± 2.4e-05 | 0.000402 ± 5e-05
C11A A12U U45G U55A C70U | 0.00104 ± 0.00013 |  |  |  |  | 7.5e-05 ± 3.1e-05 | 0.000245 ± 5.6e-05
A15U G44U U47G C67G | 0.000544 ± 0.00017 |  |  |  | 0.000193 ± 3.9e-05 | 0.000563 ± 9.9e-05 | 0.000418 ± 9.9e-05
C58A | 0.000863 ± 0.00012 | 4110 ± 820 | 1.13e-05 ± 2.2e-06 | 3.84e-05 ± 2.2e-06 | 0.000118 ± 2.7e-06 | 0.000305 ± 7.2e-06 | 0.000665 ± 2.3e-05
C11A A53U | 0.000128 ± 2.5e-06 | 2860 ± 180 |  |  |  | 6.02e-05 ± 1.6e-05 | 9.96e-05 ± 1.2e-05
G9U A48U C58G C67U | < 1e-05 |  | < 1e-05 |  | < 1e-05 |  | 
G37A A52G | 0.000162 ± 8.6e-06 | 3420 ± 440 |  |  |  | 6.77e-05 ± 1.2e-05 | 0.000121 ± 1.5e-05
A14C U57C | 5.66e-05 ± 5.7e-07 | 1390 ± 73 | < 1e-05 |  |  | 3.68e-05 ± 1.3e-05 | 4.96e-05 ± 7.4e-06
C34U A48G C68A | < 1e-05 |  | < 1e-05 |  |  | < 1e-05 | 
C11U U31G | 0.00667 ± 0.0031 |  | 0.000105 ± 2.5e-05 | 0.000255 ± 6.7e-05 | 0.000818 ± 0.00016 | 0.00175 ± 0.0004 | 0.00565 ± 0.00097
A14G A15U C68G | 8.39e-05 ± 2.5e-05 |  |  | 5.83e-05 ± 2.5e-05 | 4.44e-05 ± 1.3e-05 | 9.14e-05 ± 2.3e-05 | 7.97e-05 ± 2.3e-05
A48C A53U | 0.000244 ± 1.5e-05 | 2410 ± 320 |  |  | 4.84e-05 ± 1.1e-05 | 0.000131 ± 2e-05 | 0.000191 ± 3e-05

Variant | kcat [1] [s⁻¹] | KM [2] [µM] | self-cleavage kobs at 40 uM GlcN6P [3] [s⁻¹] | self-cleavage kobs at 160 uM GlcN6P [4] [s⁻¹] | self-cleavage kobs at 640 uM GlcN6P [5] [s⁻¹] | self-cleavage kobs at 2500 uM GlcN6P [6] [s⁻¹] | self-cleavage kobs at 10000 uM GlcN6P [7] [s⁻¹]
U30A C70G | 8.36e-05 ± 9.7e-06 |  |  | 6.81e-05 ± 1.8e-05 | 6.45e-05 ± 1.5e-05 | 0.000108 ± 2.6e-05 | 8.03e-05 ± 1.3e-05
U45C A48U | 7.71e-05 ± 4.6e-06 | 628 ± 170 |  |  |  | 6.49e-05 ± 1.5e-05 | 6.96e-05 ± 1.9e-05
A14C U47G | 0.00101 ± 0.00014 | 2500 ± 550 | 2.31e-05 ± 1.1e-05 | 6.35e-05 ± 1.2e-05 | 0.000208 ± 3e-05 | 0.000422 ± 8.2e-05 | 0.000874 ± 0.00012
A14U U57C | 7.65e-05 ± 1.4e-05 |  |  |  |  | 5.75e-05 ± 1.1e-05 | 6.38e-05 ± 1.2e-05
G41C C71U | 0.000207 ± 2.1e-05 | 2580 ± 590 |  |  | 3.67e-05 ± 8.3e-06 | 0.000119 ± 1.8e-05 | 0.00016 ± 1.7e-05
U49G U56A | 0.000478 ± 0.00021 |  |  |  | 0.000105 ± 1.9e-05 | 0.000173 ± 4.1e-05 | 0.000466 ± 9.5e-05
A12U U46C | 0.0152 ± 0.0021 | 2700 ± 520 | 0.000227 ± 3.3e-05 | 0.00106 ± 0.00025 | 0.00223 ± 0.00068 | 0.00688 ± 0.0018 | 0.0123 ± 0.0017
A12C G44A A53U | 0.000479 ± 4.3e-05 | 4570 ± 530 |  |  | 5.92e-05 ± 1.6e-05 | 0.000169 ± 4.4e-05 | 
G37A U54A U65G | 0.000309 ± 7.3e-05 | 5170 ± 1900 |  |  | 4.03e-05 ± 1.2e-05 | 9.16e-05 ± 2e-05 | 0.000215 ± 5e-05
G59A C71U | 6.15e-05 ± 1.4e-06 | 1210 ± 130 | < 1e-05 |  |  | 4.05e-05 ± 7.8e-06 | 5.51e-05 ± 6.9e-06
G13A U54A | 0.000832 ± 0.00029 |  | 5.62e-05 ± 2.4e-05 | 5.51e-05 ± 1.6e-05 | 0.000147 ± 3.8e-05 | 0.000299 ± 5.6e-05 | 0.000709 ± 0.0001
A15C U57G | 2.37e-05 ± 5.5e-06 |  | < 1e-05 | < 1e-05 |  |  | 
A15U G59U | < 1e-05 |  | < 1e-05 | < 1e-05 |  |  | 
G37A A53U | 0.00237 ± 0.00046 | 3520 ± 930 | 4.73e-05 ± 1.1e-05 | 9.91e-05 ± 1.2e-05 | 0.000367 ± 3.5e-05 | 0.000924 ± 0.0001 | 0.00185 ± 0.00023
U30A A33U | 5.67e-05 ± 3.2e-06 | 4010 ± 660 | < 1e-05 | < 1e-05 |  |  | 4.04e-05 ± 8.7e-06
